US20260063625A1, “COMPOSITIONS FOR AND METHODS OF DETECTING FOOD TOXINS” (priority 2022, published 2026)
Residue numbers refer to the chain shown, from its start. In names and notes the source's numbering stands.

B1: OsSxph: Saxiphilin of Oophaga sylvatica, Little devil poison frog, SEQ ID NO:5 (protein, listed as Oophaga sylvatica)
chain: MRMTLQVLLCLCLLVLSSAAPNSRNVRWCVTSDTEEQKCNDLVTSCHVDEILLICVKKSSKEDCVRAISNGEADAISLDSKDVYKASLDPFNLKPIMTEAYSESEQTPCMRHRQSVLGGKKMIIGAFVPKCDEKGNYVPKQCHDSTGFCWCLNENGEEIEGTRTPPGNSGLTCENKANKPPCLKERQKLLSAKPSPAVFVPECDEKGNYRPEQSHVYSWCVDEYGEEVLGSRTFPGKPPKPCEASGETPCIKERNKVLSAAEPLPGAFVPDCDEKGYFSPLQFHGSTGHSWCVTKNGEEIKGTRTRPGQTPPTCDVPAPATLHYAVAVVKKSSSFQLDQLKGKRSCHSAVGEAAGWVAPLNVLLKKKFLLWEEPEQKSTEKVASEIFSASCAAGAQEANLCEQCAGQEDKCTRGPGEPYYGDEGAIRCLRDDKGDVAFVEDTALTGQYSDNFELLCPDNTRRPLSQYKICNFGSVPRHAVVTRSTGDKMKEITEYLLQAQKKECKLFSSTHGKDLLFEDTTSALIALPSGMDTFLFLGPDLFNGMKTLNGAHPPRVKQKIRWCPQNKNEKKKCDDWSSVSGGSIKCTEPSSALECIKMILKDEADAVNLDAEHAYTALKCGLLPSLEEYRNKDDLIVCQIPGAEYSEFGSYRIVALVKKTDKDITWNNLQGKKSCHTHVGDMIGWNIPVYLISKKTKNCDLGSYFSQSCAPGSPIDSNLCKLCIGDPQNTEANTKCSLSDKEAYYGNEGAVRCLVETGDVAFVPHTAVFENTDGKNPALWAKDLKSTDFELLCPDGSRAPVSDYKKCKLSGIANHVTVTRPESVKDVVRITQNQESLYGRTGSQKDIFQMFSSSYGQNLLFNDRTQCLFEFDRMLDRDIMDDYLGKPFHKHLMSDNDCLPKSALATACSFHH
B2: RiSxph: Saxiphilin of Ranitomeya imitator, Mimic poison frog, SEQ ID NO:6 (protein)
chain: MRRSSYAASQEMRMTLRVLLCLCLWALSSAAPNTRNVRWCVTSDTEEQKCNDLVTSCHVDEILLICVKKSSTEDCVRAISNGEADAISLDSKDVYKASLDPFNLKPIMTEAYSESEHTPCMRHRQSVLGGKIMKIGAFVPKCDEKGNYVPKQCHGSTGYCWCLNENGEEIEGTRTPPGNPGLTCENKANKPPCLKERQKLLSAKPSPAVFVPECDEKGNYRPQQSHVYSWCVDEYGEEVFGSRSFPGKPPKPCEASGETPCIKERNKVLSAAEPLLGAFVPDCDEKGYFSPLQSHGSTGYSWCVTKNGDEIKGTRTGPGQSPPTCEVPAPVTLHYAVAVVKKSSSFHLDQLKGKRSCHSAVGEAAGWVAPLNVLLKKKLLLWEEPEPKTIEKVASEIFSASCAPGAQEANLCEQCAGQEDKCTRGPGEPYYGDEGAFRCLREDKGDVAFVEDTALTGQYSDNFELLCPDNTRRPLSQYKICNFGRIPRHAVVTRSSGDKMKDITEYLLQAQKKECKLFSSTHGKDLLFEDTTSALIALPSAMDTFLFLGPDLFNGMKTLNGARPPQVNQQIRWCPQSKNEKKKCDDWSSVSGGAIKCTEPSSGLECIKMILKGEAEAVNLDIEHSYIALKCGLLPSVDEYRNKDDLIPCQIPGSEYSEFGSYRIVALVKKTDKDLTWNNLQGKKSCHTRAGDMIGWNIPVYLISKKTKNCDLGSYFSQSCAPGSPIDSNLCKLCIGDPQNPQANTKCSISDKEAYYGHEGAIRCLVEKGDVAFVPHTAIFENTDGKNPALWAKDLKSTDFELLCPDGSRAPVNDYKKCKLSGIANQIAITRPESVKDVVRIIQNQQSLYGRTGSQKDIFQMFSSSYGQNLLFSDRTQCLVEFDRMLDRDIMDDYFGKPFHKHLLRDNDCLPKSALASACSFHH
modifications: Ranitomeya imitator
B3: MaSxph: Saxiphilin of Mantella aurantiaca, Golden mantella, SEQ ID NO:3 (protein, listed as Mantella aurantiaca)
chain: MALTFQTALYFTIIGLSFVTSSARDVRWCVISDLEQKKCNDLVGSCKVSGITLVCVHRSSTENCMTAIRDEQADAMFLDSGDVYKASMSPYNLKPIIAESYSSHKECLKKRQEALGGANVLGQFVPQCDEKGSYQPQQCYGSTGHCWCVNAIGEEIVGTKTQPGQTQATCERHDQTKCLKDRQKALAKKMIGGFVPQCDEKGNFKPRQCHGSTGYCWCTNANGEKIAATNTPPQQSPPTCERHDLDSCHYAVAVVKKSSIFQFNQLKGKRSCHSGVSKTDGWKAPVSVLVDKNLLSWDRAAKESIEKAVSKFFSDSCIPGATETNLCNQCMGEGGKKCMSSHDEPYYGDHGAFRCLKEDKGDVAFLKNTVLSDTHSEDYELLCPDNTRKPLNKYKECNLGKVPADAVVTRKSGDKIKDINDFLLEAQKKHCQLFSSAHGKDLMFDDSTTQLSLLPPEVDVFFFLGVQWLNTMKTLTADVKPPSKNKVRWCTVNNLEKMKCDDWSAVSGGAIECTEASSPEHCIKQIVKGEADAVTLDVQYMYEALKCGLLPAVEEYHNKDDFGPCKTPGSEIKDFGAKRAVALVKKSNKDINWHNLKGKKSCHTGVGDQAGWIIPVGLISRQIDNCNIDSFFSESCAPGSDTTSNFCKLCIGDPSNPMANTKCSLSDKEAYHGNEGAIRCLVEKGDVAFVHHTAVFENTDGKNPAEWAANLKSEDFEILCLDGSRAPVSNYMTCRLSGVPPRAIVTREESVSDVVRILINQQSLFGRNGFEKDMFQMFSSNKGQNLLFNDGTQCLIEFDRQPRGIMEDYFGKPYYNAVYNTSKCVLPSELTSACTFKHC
B4: E540Q: RcSxph mutant E540Q (protein)
chain: MAPTFQTALFFTIISLSFAAPNAKQVRWCAISDLEQKKCNDLVGSCNVPDITLVCVLRSSTEDCMTAIKDGQADAMFLDSGEVYEASKDPYNLKPIIAEPYSSNRDLQKCLKERQQALAKKMIGHYIPQCDEKGNYQPQQCHGSTGHCWCVNAMGEKISGTNTPPGQTRATCERHELPKCLKERQVALGGDEKVLGRFVPQCDEKGNYEPQQFHGSTGYSWCVNAIGEEIAGTKTPPGKIPATCQKHDLVTTCHYAVAMVKKSSAFQFNQLKGKRSCHSGVSKTDGWKALVTVLVEKKLLSWDGPAKESIQRAMSKFFSVSCIPGATQTNLCKQCKGEEGKNCKNSHDEPYYGNYGAFRCLKEDMGDVAFLRSTALSDEHSEVYELLCPDNTRKPLNKYKECNLGTVPAGTVVTRKISDKTEDINNFLMEAQKRQCKLFSSAHGKDLMFDDSTLQLALLSSEVDAFLYLGVKLFHAMKALTGDAHLPSKNKVRWCTINKLEKMKCDDWSAVSGGAIACTEASCPKGCVKQILKGEADAVKLEVQYMYEALMCGLLPAVQEYHNKDDFGPCKTPGSPYTDFGTLRAVALVKKSNKDINWNNIKGKKSCHTGVGDIAGWVIPVSLIRRQNDNSDIDSFFGESCAPGSDTKSNLCKLCIGDPKNSAANTKCSLSDKEAYYGNQGAFRCLVEKGDVAFVPHTVVFENTDGKNPAVWAKNLKSEDFELLCLDGSRAPVSNYKSCKLSGIPPPAIVTREESISDVVRIVANQQSLYGRKGFEKDMFQLFSSNKGNNLLFNDNTQCLITFDRQPKDIMEDYFGKPYYTTVYGASRSAMSSELISACTIKHC
B5: F784A: RcSxph mutant F784A (protein)
chain: B4 chain with Q559E, F803A
B6: Y795A: RcSxph mutant Y795A (protein)
chain: B4 chain with Q559E, Y814A
B7: Q787A: RcSxph mutant Q787A (protein)
chain: B4 chain with Q559E, Q806A
B8: I782A/Y558A: RcSxph double mutant I782A/Y558A (protein)
chain: B4 chain with Q559E, Y577A, I801A
B9: F784C: RcSxph mutant F784C (protein)
chain: B4 chain with Q559E, F803C
B10: D794N: RcSxph mutant D794N (protein)
chain: B4 chain with Q559E, D813N
B11: F784Y: RcSxph mutant F784Y (protein)
chain: B4 chain with Q559E, F803Y
B12: F784L: RcSxph mutant F784L (protein)
chain: B4 chain with Q559E, F803L
B13: T563A: RcSxph mutant T563A (protein)
chain: B4 chain with Q559E, T582A
B14: I782F: RcSxph mutant I782F (protein)
chain: B4 chain with Q559E, I801F
B15: Y558F: RcSxph mutant Y558F (protein)
chain: B4 chain with Q559E, Y577F
B16: K789A: RcSxph mutant K789A (protein)
chain: B4 chain with Q559E, K808A
B17: F784S: RcSxph mutant F784S (protein)
chain: B4 chain with Q559E, F803S
B18: D785A: RcSxph mutant D785A (protein)
chain: B4 chain with Q559E, D804A
B19: Q787E: RcSxph mutant Q787E (protein)
chain: B4 chain with Q559E, Q806E

Test: Fluorescence polarization (FP) binding to fluorescein labeled STX
Settings: […]G = RT ln (Kd(XSxph)/Kd(RcSxph)); T = 298K
Procedure: […]; Measurements were performed at 25° C. on a Synergy H1 microplate reader (BioTek) using the polarization filter setting (excitation 485 nm, emission 528 nm). […]. The dissociation constants were calculated using GraphPad Prism by fitting fluorescence millipolarization (mP=P·10^−3, where P is polarization) as a function of Sxph concentration using the equation: P={(Pbound−Pfree) [Sxph]/(Kd+[Sxph])}+Pfree, where P is the polarization measured at a given Sxph concentration, Pfree is the […], and Pbound is the maximum polarization of Sxph bound by F-STX (Rossi and Taylor, Hansen et al.).

Q: Which “[…]G (kcal mol^−1) relative to RcSxph” value does the source give for B1 here?
A: The value was -1.32 kcal/mol.

Q: For B2, which “[…]G (kcal mol^−1) relative to RcSxph” value is on record?
A: The value was -1.32 kcal/mol.

Q: For B3, which “[…]G (kcal mol^−1) relative to RcSxph” value is on record?
A: The value was -1.73 kcal/mol.

Same assay, conditions: […]G = RT ln (KdSxph mutant/KdSxph); T = 298K

Q: With B4 as the molecule, how does the “[…]G (kcal mol^−1) relative to wild-type RcSxph” value read?
A: The value was 4.30 kcal/mol.

Q: Which “[…]G (kcal mol^−1) relative to wild-type RcSxph” value does the source give for B5 here?
A: The value was 2.71 kcal/mol.

Q: Which “[…]G (kcal mol^−1) relative to wild-type RcSxph” value does the source give for B6 here?
A: The value was 0.08 kcal/mol.

Q: Which “[…]G (kcal mol^−1) relative to wild-type RcSxph” value does the source give for B7 here?
A: Its value is 0.25 kcal/mol.

Q: For B8, which “[…]G (kcal mol^−1) relative to wild-type RcSxph” value is on record?
A: Its value is -1.07 kcal/mol.

Q: For B9, which “[…]G (kcal mol^−1) relative to wild-type RcSxph” value is on record?
A: Its value is 3.15 kcal/mol.

Q: For B10, which “[…]G (kcal mol^−1) relative to wild-type RcSxph” value is on record?
A: The value was 3.60 kcal/mol.

Q: Which “[…]G (kcal mol^−1) relative to wild-type RcSxph” value does the source give for B11 here?
A: Its value is 0.37 kcal/mol.

Q: With B12 as the molecule, how does the “[…]G (kcal mol^−1) relative to wild-type RcSxph” value read?
A: The value was 1.11 kcal/mol.

Q: For B13, which “[…]G (kcal mol^−1) relative to wild-type RcSxph” value is on record?
A: Its value is -0.20 kcal/mol.

Q: For B14, which “[…]G (kcal mol^−1) relative to wild-type RcSxph” value is on record?
A: The value was 0.46 kcal/mol.

Q: Which “[…]G (kcal mol^−1) relative to wild-type RcSxph” value does the source give for B15 here?
A: The value was -0.10 kcal/mol.

Q: For B16, which “[…]G (kcal mol^−1) relative to wild-type RcSxph” value is on record?
A: The value was -0.22 kcal/mol.

Q: Which “[…]G (kcal mol^−1) relative to wild-type RcSxph” value does the source give for B17 here?
A: The value was 3.60 kcal/mol.

Q: Which “[…]G (kcal mol^−1) relative to wild-type RcSxph” value does the source give for B18 here?
A: The value was 0.57 kcal/mol.

Q: Which “[…]G (kcal mol^−1) relative to wild-type RcSxph” value does the source give for B19 here?
A: The value was -0.09 kcal/mol.
